In publication doi:10.1101/2021.07.29.454387 (bioRxiv, 2021):

What was measured:
Assay in all cases: ITC
[1] = molecular target: T1, PDZ domain of human PDLIM3 (residues 1-84) (human, UniProt Q53GG5 1-84)
T1 sequence: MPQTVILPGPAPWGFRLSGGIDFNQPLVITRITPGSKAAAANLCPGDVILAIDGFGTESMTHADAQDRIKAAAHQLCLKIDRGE

[2] = molecular target: PDLIM7 PDZ domain (1-84) H63A (human, UniProt Q9NR12 1-84, H63A)
[3] = molecular target: PDLIM7 PDZ domain (1-84) W14Y (human, UniProt Q9NR12 1-84, W14Y)
[4] = molecular target: T2, PDZ domain of human PDLIM1 (residues 1-84) (human, UniProt O00151 1-84)
T2 sequence: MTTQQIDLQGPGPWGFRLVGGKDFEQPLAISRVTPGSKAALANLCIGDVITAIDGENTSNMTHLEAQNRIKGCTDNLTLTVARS

[5] = molecular target: PDLIM7 PDZ domain (1-84) P11E (human, UniProt Q9NR12 1-84, P11E)
Sequence of PDLIM7 PDZ domain (1-84) P11E (Q9NR12 1-84 P11E): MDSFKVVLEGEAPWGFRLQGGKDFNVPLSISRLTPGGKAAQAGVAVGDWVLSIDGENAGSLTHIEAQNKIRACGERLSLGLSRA

[6] = molecular target: T3, PDZ domain of human PDLIM2 (residues 1-84) (human, UniProt Q96JY6 1-84)
T3 sequence: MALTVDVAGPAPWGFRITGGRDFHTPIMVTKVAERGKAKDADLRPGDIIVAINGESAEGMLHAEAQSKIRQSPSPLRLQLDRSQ

[7] = molecular target: T4, PDZ domain of human PDLIM5 (residues 1-84) (human, UniProt Q96HC4 1-84)
T4 sequence: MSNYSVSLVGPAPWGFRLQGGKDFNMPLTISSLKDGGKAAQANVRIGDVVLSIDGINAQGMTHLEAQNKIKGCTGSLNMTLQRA

[8] = molecular target: PDLIM7 PDZ domain (1-84) Q67A (human, UniProt Q9NR12 1-84, Q67A)
Sequence of PDLIM7 PDZ domain (1-84) Q67A (Q9NR12 1-84 Q67A): as the sequence (Q9NR12 1-84 P11E) above, with E11P, Q67A counted along it

[9] = molecular target: PDZ domain of human PDLIM7 (residues 1-84) (human, UniProt Q9NR12 1-84)
Sequence of PDZ domain of human PDLIM7 (residues 1-84) (Q9NR12 1-84): as the sequence (Q9NR12 1-84 P11E) above, with E11P counted along it

[10] = molecular target: T5, PDZ domain of human PDLIM4 (residues 1-84) (human, UniProt P50479 1-84)
T5 sequence: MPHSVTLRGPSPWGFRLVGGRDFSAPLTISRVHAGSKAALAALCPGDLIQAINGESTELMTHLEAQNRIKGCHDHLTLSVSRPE

Measured: binding result

Sequence of PDLIM7 PDZ domain (1-84) H63A (Q9NR12 1-84 H63A): as the sequence (Q9NR12 1-84 P11E) above, with E11P, H63A counted along it
Sequence of PDLIM7 PDZ domain (1-84) W14Y (Q9NR12 1-84 W14Y): as the sequence (Q9NR12 1-84 P11E) above, with E11P, W14Y counted along it

B1: SNX17 C-terminal peptide (457-470) used for ITC (peptide)
peptide: HGNFAFEGIGDEDL
binds: all assays above

B2: SNX17 C-terminal peptide E468R (peptide)
peptide: HGNFAFEGIGDRDL
binds: [9]
